These are literature values, as cited in US5993783A, “Method and apparatus for pulmonary administration of dry powder α1-antitrypsin” (Inhale Therapeutic Systems, priority 1998, dated 1999).

The conditions of this data set: similar sheep model, Smith et al. 1989.

In the case of “α1AT: α1-antitrypsin, a protease inhibitor with inhibitory activity toward neutrophil elastase”, the “rate of clearance of α1AT out of the lungs, % of the total rate of α1AT transported out of the lung” value is listed as 16.1±10.4%.
